B1: unnamed (parent)
chain 1: MELIRIAMKKDLENDNSLMNKWATVAGLKNPNPLYDFLNHDGKTFNEFSSIVNIVKSQYPDREYELMKDYCLNLDVKTKAARSALEYADANMFFEIEDVLIDSMISCSNMKSKEYGKVYKIHRELSNSVITEFEAVKRLGKLNIKTPEMNSFSRLLLLYHYLSTGNFSPMAQLIKQIDLSEISENMYIRNTYQTRVHVLMSNIKLNENSLEECREYSKKALESTNILRFQVFSYLTIGNSLLFSNYELAQENFLKGLSISVQNENYNMIFQQALCFLNNVWRKENKWINFESDSIMDLQEQAHCFINFNENSKAKEVLDKLDLLVHNDNELAMHYYLKGRLEQNKACFYSSIEYFKKSNDKFLIRLPLLELQKMGENQKLLELLLL
chain 2: not shown

Variants of: B1
Experiment: thermal shift assay
Conditions: with partner chain of the complex shown; AimR + AimP; one of three independent experiments
chain 1 N202A gave a screen value of 50.9 °C.
Variant chain 1 D360A has a screen value of 44.4 °C.
